Measured values reported in patent publication US11839219B2, “BVP10 protein for controlling tetranychid mites and use thereof” (priority 2021, dated 2023).

Columns and labels:
Panonychus citri = experiment: Slide dipping method, miticidal activity against Panonychus citri; details: for Mortality (%): 24 hrs after dipping; for Probability Unit (P + 5): probit of mortality
From the text: (§1) Referring to the standard method for determining pest mites, namely, the slide dipping method, recommended by the Food and Agriculture Organization of the United Nations (FAO), a double-faced adhesive tape is cut into pieces 2-3 cm long and stuck to one end of a microscope slide, and paper on the adhesive tape is removed with tweezers. Female adult mites with similar sizes, bright body color and high vitality are picked with a 0# Chinese writing brush, and are stuck to the double-faced adhesive tape (note: the feet, whiskers, and mouthparts of the mites should not be stuck) on their backs, with 4 lines stuck to each piece and 10 mites in each line. The mites are placed and left in a biochemical incubator with the temperature of 25° C. and a relative humidity of approximately 85% for 4 hrs, and then are observed with binoculars. […] The agent is diluted 5-7 times with water based on a preliminary test. One end of the slide with the mites is dipped into the agent solution, shaken lightly for 5 s and then taken out. The mites, as well as the excessive agent solution therearound, are rapidly dried with absorbent paper. The slide is placed and left in the above biochemical incubator. After 24 hrs, the results are checked with the binoculars. The bodies of the mites are lightly touched with the Chinese writing brush, and those without any motion of their feet are considered to be dead. The test is repeated three times at each concentration, and the mites dipped in fresh water are taken as a control. […] An LC50 value is calculated by using the SPASS 19.0 data processing software.

[1] = system: strawberry red spider mites; experiment: Field control of strawberry red spider mites; format: in vivo; details: for Control effect (%): corrected against fresh water control
Procedure: Test agents: 20% avermectin spirodiclofen suspension (Hebei Xingbai Agricultural Technology Co., Ltd., diluted 3000 times during use; and the biological mite pesticide BVP10 with the effective protein concentration of 389.5 μg/mL.
The test included three treatments, each repeated three times; blocks are randomly permuted; and the agents are applied to […] in each block with protective rows provided around the plants. […] Ten strawberry plants are taken from each block, with one leaf labeled for each plant. The number of red spider mites on both sides of each of the ten leaves are inspected. The red spider mites are directly observed with a hand-held magnifying lens, and the number of all living mites is taken down. The initial population number of the red spider mites is investigated before the application, and a total of three investigations are conducted on Day 1, Day 4, and Day 7 respectively after the application.
Calculation method of pesticidal effect: the control effect is calculated based on the initial population number of the red spider mites before the application and the number of living red spider mites on each day after the application, and the calculation formula is shown below: The data is analyzed for significance using Duncan's new multiple range method of DPS software.

Tetranychus cinnabarinus = experiment: Slide dipping method, miticidal activity against Tetranychus cinnabarinus; details: for Mortality (%): 24 hrs after dipping; for Probability Unit (P + 5): probit of mortality
From the text: as §1
An LC50 value is calculated by using the SPASS 19.0 data processing software.

Tetranychus urticae = experiment: Slide dipping method, miticidal activity against Tetranychus urticae; details: for Mortality (%): 24 hrs after dipping; for Probability Unit (P + 5): probit of mortality
From the text: as §1, with “by” for “by the”, “body color,” for “body color”, “incubator for 4 hrs at” for “incubator with the”, “approximately 85%,” for “approximately 85% for 4 hrs,”, “5 s,” for “5 s”, “using” for “using the”

[2] = Dose 19.475 μg/mL, female adult mites
[3] = Dose 38.95 μg/mL, female adult mites
[4] = Dose 77.9 μg/mL, female adult mites
[5] = Dose 389.5 μg/mL, female adult mites
[6] = Day 4 after application, field spray on strawberry leaves
[7] = Day 7 after application, field spray on strawberry leaves

B1: BVP10 protein: protein shown in SEQ ID NO:2 for controlling tetranychid mites, prokaryotically expressed in Escherichia coli BL21, about 10 kDa (protein)
chain: MLKSKIKKIAGAAVIAGALLVSVSPAKAETLPGLIWVMDKYTDAFKFDMFIKNGNEKWVYVYTRLSDGKVDVEEVKCETIYKDRCYVKQ
modifications: Sequence for protein prepared by prokaryotic expression, eukaryotic expression, or direct synthesis, based the gene sequence of SEQ ID NO 1
With B1 the “Mortality (%)” value (Panonychus citri; [2]) was 23.5%, the “Probability Unit (P + 5)” value (Panonychus citri; Dose 19.475 μg/mL) was 4.276 and the “Mortality (%)” value (Panonychus citri; [3]) was 47.1%. For the same molecule, the “Probability Unit (P + 5)” value (Panonychus citri; Dose 38.95 μg/mL) was 4.922, the “Mortality (%)” value (Panonychus citri; [4]) was 63.6% and the “Probability Unit (P + 5)” value (Panonychus citri; Dose 77.9 μg/mL) was 5.349. The “Mortality (%)” value (Panonychus citri; [5]) was 78.6%, the “Probability Unit (P + 5)” value (Panonychus citri; Dose 389.5 μg/mL) was 5.793 and the “Medial Lethal Concentration (LC50, μg/mL)” value (from here on “Medial Lethal Concentration”) (Panonychus citri; female adult mites, 24 hrs, regression Y = 3.0472 + 1.1072X (r = 0.9548)) was 58.05 µg/mL. For the same molecule, the “Control effect (%)” value ([1]; Day 1 after application) was 79.53%, the “Decline rate (%) of living mites” value ([1]; Day 1 after application, field spray on strawberry leaves) was 41.14% and the “Residual no of mites” value ([1]; Day 1 after application, field spray on strawberry leaves, BVP10 389.5 μg/mL, reference diluted 3000 times) was 206. For the same molecule, the “Control effect (%)” value ([1]; Day 4 after application) was 83.71%, the “Decline rate (%) of living mites” value [1, 6] was 33.14% and the “Residual number of mites” value [1, 6] was 234. The “Control effect (%)” value ([1]; Day 7 after application) was 95.45%, the “Decline rate (%) of living mites” value [1, 7] was 77.14% and the “Residual number of mites” value [1, 7] was 80. The “Medial Lethal Concentration” value (Tetranychus cinnabarinus; 24 hrs, regression Y = 2.3766 + 1.6846X (r = 0.9797)) was 36.08 µg/mL, the “Mortality (%)” value (Tetranychus cinnabarinus; Dose 19.475 μg/mL) was 27.8% and the “Probability Unit (P + 5)” value (Tetranychus cinnabarinus; Dose 19.475 μg/mL) was 4.413. The “Mortality (%)” value (Tetranychus cinnabarinus; Dose 38.95 μg/mL) was 51.4%, the “Probability Unit (P + 5)” value (Tetranychus cinnabarinus; Dose 38.95 μg/mL) was 5.039 and the “Mortality (%)” value (Tetranychus cinnabarinus; Dose 77.9 μg/mL) was 80.0%. For the same molecule, the “Probability Unit (P + 5)” value (Tetranychus cinnabarinus; Dose 77.9 μg/mL) was 5.840, the “Mortality (%)” value (Tetranychus cinnabarinus; Dose 389.5 μg/mL) was 94.7% and the “Probability Unit (P + 5)” value (Tetranychus cinnabarinus; Dose 389.5 μg/mL) was 6.616. The “Mortality (%)” value (Tetranychus urticae; [2]) was 47.2%, the “Probability Unit (P + 5)” value (Tetranychus urticae; Dose 19.475 μg/mL) was 4.927 and the “Mortality (%)” value (Tetranychus urticae; [3]) was 60.6%. For the same molecule, the “Probability Unit (P + 5)” value (Tetranychus urticae; Dose 38.95 μg/mL) was 5.268, the “Mortality (%)” value (Tetranychus urticae; [4]) was 55.9% and the “Probability Unit (P + 5)” value (Tetranychus urticae; Dose 77.9 μg/mL) was 5.148. The “Mortality (%)” value (Tetranychus urticae; [5]) was 68.4%, the “Probability Unit (P + 5)” value (Tetranychus urticae; Dose 389.5 μg/mL) was 5.483 and the “Medial Lethal Concentration” value (Tetranychus urticae; female adult mites, 24 hrs, regression Y = 4.5286 + 0.3682X (r = 0.8832)) was 19.07 µg/mL.
